This is an account of results in article PMC10946055.

Some targets named below: XPA DBD M113I (Homo sapiens, UniProt P23025 98-239, M113I); XPA DBD D114Y (Homo sapiens, UniProt P23025 98-239, D114Y); XPA DBD R130I (Homo sapiens, UniProt P23025 98-239, R130I); XPA DBD F112C (Homo sapiens, UniProt P23025 98-239, F112C); XPA DBD Y148D (Homo sapiens, UniProt P23025 98-239, Y148D); XPA DBD WT (Homo sapiens, UniProt P23025 98-239).
Assay in all cases: MST

XPA DBD R130I, sequence (P23025 98-239 R130I): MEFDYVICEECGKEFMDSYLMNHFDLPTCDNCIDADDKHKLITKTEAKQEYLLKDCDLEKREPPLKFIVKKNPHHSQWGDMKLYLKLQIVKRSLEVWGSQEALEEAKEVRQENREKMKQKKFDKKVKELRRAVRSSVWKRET
XPA DBD Y148D, sequence (P23025 98-239 Y148D): as the sequence (P23025 98-239 R130I) above, with I33R, Y51D counted along it
XPA DBD F112C, sequence (P23025 98-239 F112C): as the sequence (P23025 98-239 R130I) above, with F15C, I33R counted along it
XPA DBD D114Y, sequence (P23025 98-239 D114Y): as the sequence (P23025 98-239 R130I) above, with D17Y, I33R counted along it
XPA DBD M113I, sequence (P23025 98-239 M113I): as the sequence (P23025 98-239 R130I) above, with M16I, I33R counted along it
XPA DBD WT, sequence (P23025 98-239): as the sequence (P23025 98-239 R130I) above, with I33R counted along it

Consider TTTTGCGGCCGCTTTTGCGGCCGC (structured_DNA) [NER junction mimic hairpin, 8 bp with 4 nt overhang], for which the Kd – broadly, the constant that tells how readily two partners part at equilibrium – in the series with XPA DBD M113I is 12 ± 1.9 µM; with XPA DBD D114Y, 8.8 ± 1.7 µM; in the series with XPA DBD R130I, 38 ± 22 µM; in the series with XPA DBD F112C, 9.2 ± 2.2 µM; with XPA DBD WT, 7.7 ± 3.7 µM. For the same molecule, in the series with XPA DBD Y148D, the binding result is given as “no binding”.
